{"source": "the DeepSol protein solubility set", "experiment": "soluble on expression in E. coli; label from the status in PepcDB or PDB records", "data": [{"sequence": "RWYQRYLNPDRRHLAIDPYICGTVLTYSSDAPIGDSAPTTSCYMTGMPSNTGFVSTYPVSSGDADLIPVDKARAYSPLATFLEAAKIMKGKKTGLVVTCHFPHATPADCSAHSYSRKKYDWIAAQMVHQNLDVVLGGGTHYLHPELQSVLNSRGYGLFLDDLNGMRTYAGDRMWALFGKREMPYDLDRDTTQIPSLEEMTRLAIEKLNRSEEGFFLMVEGSKVDWAAHANDPVGIATEYLAFDRACAVAFDFARRDGQTAVIIVPDHGNSGVSIGKQSVKDYDKRSAKDLFDQLCRFRLTADGLAGRLADTPADKVQGLVSNICGFELDAKELEALYNCPDYNHSPIPKEQRRQTEESLYSGSLSTFIASLYTKHTSIGFTTHGHTAEEVLLAAYHPQDTRPMGMVINYELNDYLCRLFELGSQLPVLTDKIFAPHTEVFQGMSYSIKDGKKEGELPVLEVKKGSHRLLASPFSNTVIFNKKAIDLSSVVVYVDKTKTFYLPRELRSLFGE", "values": [{"measurement": "soluble on expression in E. coli", "result": "not soluble"}]}, {"sequence": "MLRLFKIQKAPLSQFSKASNEIVKDFIEKMEKAAGSGDKVKFSDCFTEDFQFFACSFTANKAQFVEKHLTNPNPEPVIPKYSNFDENDSKIKFTVSRRVGPEVNIVDFDLLRENDGPWRLQWGKVTTCP", "values": [{"measurement": "soluble on expression in E. coli", "result": "not soluble"}]}, {"sequence": "YRALFEHAIDGIFIMDAEGHYLDVNPAICSAIGYTRDEFLALDWGVLSRGVDSGWAAASLARIVGGEPLREERTVWTRNGDQLTVELSAHLLPDGKILGIARDVS", "values": [{"measurement": "soluble on expression in E. coli", "result": "soluble"}]}, {"sequence": "MGSDKIHHHHHHMVIGQKVLLARIPKMGDNYSTYLLDIEGTVCPISFVKETLFPYFTNKVPQLVQQDTRDSPVSNILSQFHIDNKEQLQAHILELVAKDVKDPILKQLQGYVWAHGYESGQIKAPVYADAIDFIKRKKRVFIYSSGSVKAQKLLFGYVQDPNAPAHDSLDLNSYIDGYFDINTSGKKTETQSYANILRDIGAKASEVLFLSDNPLELDAAAGVGIATGLASRPGNAPVPDGQKYQVYKNFETL", "values": [{"measurement": "soluble on expression in E. coli", "result": "soluble"}]}, {"sequence": "SNAMPVRVIVDSSACLPTHVAEDLDITVINLHVMNNGEERSTSGLSSLELAASYARQLERGGDDGVLALHISKELSSTWSAAVTAAAVFDDDSVRVVDTSSLGMAVGAAAMAAARMAKDGASLQECYDIAVDTLKRSETWIYLHRIDEIWKSGRISTATAMVSTALATRPIMRFNGGRMEIAAKTRTQSKAFAKLVELAQIRADGEPVFIAIGQNEAREAAKQLEELLRNALPEGSSFMSVDIDPTLAVHSGPGAVSVSAVFANQAPELSTGKAGAK", "values": [{"measurement": "soluble on expression in E. coli", "result": "soluble"}]}, {"sequence": "MGSDKIHHHHHHMGEAIEVAEGALWMRLPLPMKLDHVNVYAFDEGDSWTVVDTGMSSNKTRRIWEQLMAGPLGGKPVRRVVVTHHHPDHIGNAGWFQSEHGAELVTTRTAWLFARMLTLDVQESWPEETLAYYRSAGMDPEVYDTRKADRPFNFADTVYPMPLGFTRVQQGDVFRMGGRDWDIHMGNGHAPEHATLWSRDDNLVLTGDQVLSSISPNIGVYATEPEADPLAEWLEACERLAALARPEHLALGGHKLPFTRLPLRMRQLIDNHHGALERLMEFLETPKSAAECFPTLFKRTIGPGEYGLALVEAVAHVNHLYRTGQVTRTRRSDEAWVYQRR", "values": [{"measurement": "soluble on expression in E. coli", "result": "not soluble"}]}, {"sequence": "MNELVSIITPCYNSAATIRETIRSVIAQSYVNWELLIIDDCSNDDSVKIIMEFMDTDSRIYYLKTEHPSGGPTLPRNVGIQAAKGRFIAFLDSDDIWLPNKLSTQLPLFINDNVAIVYSDYEKISEEGNRTGRIVKSDPYHHYKSLLCGNELGCLTVVYDTQKIGKRYFKFIGHEDYNLWLDILKEGFIAINTNICLALYRIRKGSVSSNKLRVIKWIWHIYRVEQKKTIWLSLYYSLSDLNKSLFKYLKLEHHHHHH", "values": [{"measurement": "soluble on expression in E. coli", "result": "soluble"}]}, {"sequence": "PGSIWAKAIEHANEERKKPGADGRGDAFCYFVGSRAAGKSTLLNRFLYPTRAEVPKPSEGIEYTYARKPAAFDHEKKDLAHIWEVGGSQEFAEEIVNSDQLFLTAKQVTTAVVVIVVDLSDPAGVLPTLLYWVEQVKKKLGSTYEKFEKKGLQLPEQLRQRAKSKLYSANEDKDTVYHSGISLVIAATKYDAFKNQDPEVKKVMSRVLRYIAHAHGAFLCYLSGLHGASEGSGAEDAALLDNFTRLMNHLIFTGLEKKPVLKMQPQIDHTGPIMVPAGFDTFKSVGRPRSQGEGTVAGGLAEWRELFEKMFPGVREKEAKMSAKGAKFVIPEQYKEEEVDAVRQRKVTDLENFRKEQAAAVEAAKKKALMAKAQQAEAAAKK", "values": [{"measurement": "soluble on expression in E. coli", "result": "not soluble"}]}, {"sequence": "MGQFPRTVVHAAGTTEITTKPERVVVLDTGELDSVLSLGITPVGMTTTKGANPVPSYLADKVKDVERVGTINELNIEAIAALKPDLIIGSQLRADKLYPQLSDIAPTVFSIRPGSPWKENFLLVGEALGMEKEAEEKLNEYADRVAELKNNVPQNTEVSLVRFMPNKLRLYGNKSLIGVVLADAGLARPEKQNVDDLAVEISPENIDQAAGSVIFYTSYGKPDATGETAVVEGPAWKNLEAVAAGKAHRVNDDVWFLGLGPTGAMEIVSDLHDYLLEHHHHHH", "values": [{"measurement": "soluble on expression in E. coli", "result": "soluble"}]}, {"sequence": "MTALTWTDERVEQLKKLWEGGLSASQIAAELGNVTRNAVIGKVHRLGLSGRAKSPTSAAPRPRKARPVQQMMRVTRPVARGNTALAHAFEVEAEPDPIAFDNVVPMNQRLSLLELNEATCHWPVGDPSSPEFFFCGGKSLPGLPYCAHHSRIAYQPVGDRRRAAPKTTRLEHHHHHH", "values": [{"measurement": "soluble on expression in E. coli", "result": "soluble"}]}, {"sequence": "MGSDKIHHHHHHMSLHSDILVVGAGPAGLSFAAELAGSGLKVTLIERSPLTVLQNPPYDGREIALTHFSREIMQRLGMWDKIPENEIYPLRDAKVLNGRSDYQLHFPQPTEARGEPADCLGYLISNHNIRRAAYEVVSQLDNVSILTDTAVKEVKTSDNEAQVFLENGDILTARLLLAADSRFSQTRRQLGISSDMHDYSRTMFVCRMKHTLSNQHTAYECFHYGRTIALLPLEKRLTNTVITVDTDKINSVQNLSPEELAASVKEQLKGRLGDMELVSSIHHYPLVGMIAKRFYGKRSALIGDAAVGMHPVTAHGFNLGLSSADILAKLILEAEQRGQDIGAASLLEKYSSKHMLHAHPLYHGTNMMLKLFTNETAPAKLLRGLVLRAGNNFPPLKKLITKQLTG", "values": [{"measurement": "soluble on expression in E. coli", "result": "not soluble"}]}, {"sequence": "MIYFIRKKKWLKQLEKGEAMKYAILIGDGMADYPIEKLGNRTILQAARTPAMDSIAARGRAGLAKTVPDSFPPGSDVANMSILGYDPATYYSGRAPLEAASMGVALAADDVAFRCNLITTEHGMIKDYSAGHISSDEAEILIDTLDYELSTENIRFYPGISYRHLIVAGNNLGAETECTPPHDITGEKIDKYLPRGKDGEFFSELIEASKVVLELHPVNLKRVEEGKNPANSIWVWGQGYAPKFTAFMKLYGKKGAVISAVDLLKGIGIYAGLDVIEVHGATGYLDTNYEGKVRAAIEALKTRDLVFVHVEAPDEAGHEGSIEKKLKAVEDFDSRIVAPILEYAENSDEPFTILVLPDHPTPISVKTHTRDPIPFAIYRTDKPETDNVEAFDEESVKNGSMGLVKASDLIGILIKS", "values": [{"measurement": "soluble on expression in E. coli", "result": "not soluble"}]}, {"sequence": "MSAQRIQKVDILRYDPANDAEPHMQRFEVPFDETMSVLDAIGYVKDHLDKDLSYRWSCRMAICGSCGIMVNGVPKLACKSFLRDYPEGVKIEPLANFPIEKDLIVDMTPFIERLEAIKPYIIGNDRKPEDGTNLQTPEQMARYKQFAGCINCGLCYAACPQFGLNPEFLGPAALTLAHRYNLDSRDNGKAERMKLINGDNGAWGCTFVGYCSEVCPKHVDPAAAVNQGKVESSLDFVIAMLNPDGSPKKVEA", "values": [{"measurement": "soluble on expression in E. coli", "result": "not soluble"}]}, {"sequence": "MDLFADAPLTLPDADLRYLPHWLDAPLASAWLLRLEQETPWEQPILRIHGEEHPTPRLVAWYGDPDAAYRYSGQVHRPLPWTALLGEIRERVEREVGQRVNGVLLNYYRDGQDSMGWHSDDEPELRRDPLVASLSLGGSRRFDLRRKGQTRIAHSLELTHGSLLVMRGATQHHWQHQVAKTRRSCMPRLNLTFRLVYPQPLEHHHHHH", "values": [{"measurement": "soluble on expression in E. coli", "result": "soluble"}]}, {"sequence": "MLSTEDFDFDLPEELIAQTPLKDRASSRLLVVNKETGDMEDKHFHDILDELQPGDALVMNNTRVLPARLYGEKPETGGHLEVLLLTNTEGDTWETLIKPAKRAKVGTEIQFGDGRLKAVVKEELEHGGRIIEFKYDGIFLEILESLGEMPLPPYIKERLDDPDRYQTVYAEENGSAAAPTAGLHFTKELLEEIKAKGVHLVYLTLHVGLGTFRPVSVDNIEEHHMHSEFYRLTEEAAKQLNEVRQAGGRIVAVGTTSIRTLETIGTKFNGEIQADSGWTDIFITPGYQFKVVEAFSTNFHLPKSTLVMLVSAFAGKDLTLAAYQHAIEEKYRFFSFGDAMFIK", "values": [{"measurement": "soluble on expression in E. coli", "result": "not soluble"}]}, {"sequence": "MGSDKIHHHHHHMNLLTDIFCQKPKRETAMTTETHYDTQAANSCYYQVQGSEVEIFNFAKTHDLPVLIKGPTGCGKTRFVEFMAESLGRELVTVSCHDDLTAADLLGRHLVSSEGTFWQDGPLTRAVRHGGICYLDEIIEARKDTTVVLHSLSDHRRELHLERTGEVIKAHKDFMLVVSYNPGYQNMMKGLKPSTRQRFVAMSFDYPSPEQEAEILVHEAGITTELAHTLVKLGADIRRLSDIDLKAAVSTRLLIYAAKMMSSGCHAQMACLHCIIEPLTDEKQTIEALTQLVNAHF", "values": [{"measurement": "soluble on expression in E. coli", "result": "not soluble"}]}, {"sequence": "MLNNDVLRSLRYLLDLPDAHLAELAARFGEQVEADLLEAYLKKEDEDGFQACPDRYLARCLDGLIIQRRGRDESRPLPPLELPLSNNMILKKLRVAFELKEEDLHAILDSVDFPVSKPELSALFRKPGHSNYRTCGDQLLRNFLKGLTLRVRG", "values": [{"measurement": "soluble on expression in E. coli", "result": "not soluble"}]}, {"sequence": "QAFVSAQTSTIPKTAFTAHDFVDYTLPQEQKGKEQKEQQWMKNSQTKDTDVHPYADFAVLEILLFPDSSTDRKIFNHFIQPAIRAYKQLGDSLNIFANQTLDQPKHNRYYLLGYPFLRNKAASLFLNQTEQRKEHMDKTTQILHEKPFVVLTDPAKPTLIRNKGANFTGNTWTSNYDL", "values": [{"measurement": "soluble on expression in E. coli", "result": "not soluble"}]}, {"sequence": "MGHHHHHHSHPKQEKLLSLAGDSLFWSEADVVQATDDFNQNRKISQGTFADVYRGHRHGKPFVFKKLRETACSSPGSIERFFQAELQICLRCCHPNVLPVLGFCAARQFHSFIYPYMANGSLQDRLQGQGGSDPLPWPQRVSICSGLLCAVEYLHGLEIIHSNVKSSNVLLDQNLTPKLAHPMAHLCPVNKRSKYTMMKTHLLRTSAAYLPEDFIRVGQLTKRVDIFSCGIVLAEVLTGIPAMDNNRSPVYLKDLLLSDIPSSTASLCSRKTGVENVMAKEICQKYLEKGAGRLPEDCAEALATAACLCLRRRNTSLQEVCGSVAAVEERLRGRETLL", "values": [{"measurement": "soluble on expression in E. coli", "result": "not soluble"}]}, {"sequence": "MGYLHIDGRGMKPNGGSRHNPLEAETIAAWLVAHKDDIERHYGEPLYKVVGVVTPFSAQVNAIKMSLRKLEINGKDEQGLLTVGTVHSLQGAERAIVLFSPVYSKHEDGRFLDSNSTILNVAVSRAKDSFLVFGDMDLIEMQPAFSPRGLLAKYLFSSDNNALQFEFQKRQDLISAHTQISTLHGVEQHDEFLNKTLAGAQKKITIISPWLSWQKVEQTGFLASMALARSRGIDITVVTDKNCNIAHVDDDKRQEKQHLLNDAVEKLNKMGIATKLVNRVHSKIVIEDEELLCVGSFNWFSATREDKYQRYDTSLVYRGEGVKNEIKAIYGSLDQRQLMGHHHHHHSH", "values": [{"measurement": "soluble on expression in E. coli", "result": "not soluble"}]}, {"sequence": "MTTEAPIWPAELFEDLDRNGPIPLYFQVAQRLEDGIRSGVLPPGARLENEISVAKHLNVSRPTVRRAIQEVVDKGLLVRRRGVGTQVVQSHVTRPVELTSFFNDLKNANLDPKTRVLEHRLLAASSAIAEKLGVSAGDEVLLIRRLRSTGDIPVAILENYLPPAFNDVSLDELEKGGLYDALRSRGVVLKIANQKIGARRAVGEESTLLDIEDGGPLLTVERVALDNSGQVIELGSHCYRPDMYNFETTLVAR", "values": [{"measurement": "soluble on expression in E. coli", "result": "soluble"}]}, {"sequence": "MARMYRALTRDIEVTVDPYYLEEQSDPDDDRYVWGYKVVIANNSDVPVKLVNRYWHITDQNGQVDEVYGPGVVGEQPQLKPGDSYEYSSGCPLDTPSGLMFGHYEMETENGEVFNVTIPAFSLDSPGLMRVLNAAALEHHHHHH", "values": [{"measurement": "soluble on expression in E. coli", "result": "soluble"}]}]}
